Laboratory results as given in the supplement of paper PMC10598134.
± gives the standard deviation.

Assay: collision cross section of modified peptide (TIMS, N2, iRT-aligned); higher = larger / more extended gas-phase ion
How it was run: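 Collision cross section values rest on the Mason-Schamp equation applied to calibrated, run-aligned mobility data from synthetic peptides. Mobility (1/K0) was calibrated with three reference ions and aligned per run to the median iRT peptide deviation, and 1–3 technical replicates of the most abundant feature per charge state were averaged. Data came from a timsTOF Pro/HT in dda-PASEF mode (nitrogen, ~2.4 mbar) after a 120-min nanoflow C18 gradient at 60 °C.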

[1] = charge state: 2, modification: Trimethyl (K)
[2] = charge state: 3, modification: Trimethyl (K)
[3] = charge state: 2, modification: Nitro (Y)
[4] = charge state: 3, modification: Methyl (R)
[5] = charge state: 2, modification: hydroxyisobutyryl
[6] = charge state: 2, modification: Glutarylation
[7] = charge state: 3, modification: Glutarylation
[8] = charge state: 2, modification: Propionyl
[9] = charge state: 2, modification: Phospho (Y)
[10] = charge state: 2, modification: Succinyl
[11] = charge state: 3, modification: Succinyl
[12] = charge state: 2, modification: Dimethyl (K)
[13] = charge state: 3, modification: Dimethyl (K)
[14] = charge state: 3, modification: Methyl (K)
[15] = charge state: 2, modification: Methyl (K)
[16] = charge state: 2, modification: Butyryl
[17] = charge state: 2, modification: Citrullination (R)
[18] = charge state: 2, modification: Hydroxyproline
[19] = charge state: 3, modification: Hydroxyproline
[20] = charge state: 2, modification: Crotonyl
[21] = charge state: 3, modification: Crotonyl
[22] = charge state: 2, modification: Formyl
[23] = charge state: 2, modification: Acetyl (K)
[24] = charge state: 3, modification: Acetyl (K)
[25] = charge state: 3, modification: Nitro (Y)
[26] = charge state: 2, modification: GlyGly (K)
[27] = charge state: 3, modification: GlyGly (K)

“VTLEVGKVIQQGR [_VTLEVGK(Trimethyl (K))VIQQGR_]” gave a collision cross section [1] of 428.78 ± 1 Å² and a collision cross section [2] of 471.08 ± 1.8 Å².

Sequence VVDLLAPYAK [_VVDLLAPY(Nitro (Y))AK_] has a collision cross section [3] of 371.07 ± 0.55 Å².

In the case of “GFALVGVGSEASSKK [_GFALVGVGSEASSK(Trimethyl (K))K_]”, the collision cross section [1] is reported as 444.52 ± 0.57 Å² and the collision cross section [2] is reported as 489.21 ± 1.8 Å².

“AAQASDLEKIHLDEK [_AAQASDLEK(Trimethyl (K))IHLDEK_]” gave a collision cross section [1] of 457.14 Å² and a collision cross section [2] of 500.66 ± 1.6 Å².

Sequence “LVLPSQAQARLPSGEVVK [_LVLPSQAQAR(Methyl (R))LPSGEVVK_]” has a collision cross section [4] of 522.24 ± 0.66 Å².

Sequence “AGPNASIISLKSDK [_AGPNASIISLK(hydroxyisobutyryl)SDK_]” has a collision cross section [5] of 415.63 ± 0.53 Å².

Work on “DDSFLGKLGGTLAR [_DDSFLGK(Gluratylation)LGGTLAR_]” yielded a collision cross section [6] of 415.27 ± 0.59 Å² and a collision cross section [7] of 485.15 Å².

With “LQEKVESAQSEQK [_LQEK(Trimethyl (K))VESAQSEQK_]” the collision cross section [1] was 419.24 ± 2.2 Å² and the collision cross section [2] was 470.87 ± 1.8 Å².

Work on LQLEIDQKK [_LQLEIDQK(Propionyl)K_] yielded a collision cross section [8] of 368.05 ± 0.33 Å².

With “SYGIPYIETSAK [_SY(Phospho (Y))GIPYIETSAK_]” the collision cross section [9] was 390.55 ± 0.64 Å².

In the case of SLFFGGKGAPLQR [_SLFFGGK(Biotin)GAPLQR_], the collision cross section (charge state: 2, modification: Biotin) is reported as 419.13 Å².

Sequence ITGKNQVTATK [_ITGK(Succinyl)NQVTATK_] has a collision cross section [10] of 364.93 ± 0.74 Å² and a collision cross section [11] of 446.25 Å².

Work on “SLGEPAAGEGSAKR [_SLGEPAAGEGSAK(Dimethyl (K))R_]” yielded a collision cross section [12] of 415.22 ± 2 Å² and a collision cross section [13] of 473.88 ± 2.6 Å².

Work on “HHAAYVNNLNVTEEK [_HHAAY(Phospho (Y))VNNLNVTEEK_]” yielded a collision cross section [9] of 438.56 Å² and a collision cross section (charge state: 3, modification: Phospho (Y)) of 495.42 ± 1.2 Å².

With “KYEEIDNAPEER [_K(Dimethyl (K))YEEIDNAPEER_]” the collision cross section [12] was 402.53 ± 1.1 Å² and the collision cross section [13] was 484.37 ± 1.6 Å².

“TFGKAAGPSLSHTSGGTQSK [_TFGK(Methyl (K))AAGPSLSHTSGGTQSK_]” showed a collision cross section [14] of 525.9 ± 1.3 Å².

“TVSKVDDFLANEAK [_TVSK(Trimethyl (K))VDDFLANEAK_]” gave a collision cross section [1] of 424.19 ± 1.1 Å² and a collision cross section [2] of 482.88 ± 1.6 Å².

“DAIHFYNKSLAEHR [_DAIHFYNK(Methyl (K))SLAEHR_]” gave a collision cross section [15] of 441.67 Å² and a collision cross section [14] of 502.11 ± 2.1 Å².

For TLQKQSVVYGGK [_TLQK(Butyryl)QSVVYGGK_], the collision cross section [16] was 396.52 ± 0.85 Å².

Work on “ANEKTESSSAQQVAVSR [_ANEK(Gluratylation)TESSSAQQVAVSR_]” yielded a collision cross section [6] of 449.31 ± 1.1 Å² and a collision cross section [7] of 546.17 ± 2 Å².

For GAEKTEVAEPR [_GAEK(Butyryl)TEVAEPR_], the collision cross section [16] was 380.97 ± 1.3 Å².

“FLQEFYQDDELGKK [_FLQEFYQDDELGK(Trimethyl (K))K_]” gave a collision cross section [1] of 464.1 ± 0.55 Å² and a collision cross section [2] of 508.12 ± 1.8 Å².

In the case of “GTGRGGGGGGGGGAPR [_GTGR(Citrullination (R))GGGGGGGGGAPR_]”, the collision cross section [17] is reported as 349.34 ± 0.64 Å².

For “VPGVGLPGVYPGGVLPGAR [_VPGVGLPGVYPGGVLP(Hydroxyproline)GAR_]”, the collision cross section [18] was 432.24 ± 0.28 Å² and the collision cross section [19] was 534.68 ± 3 Å².

Work on “VPQAQPTKPALK [_VPQAQPT(HexNAc (ST))KPALK_]” yielded a collision cross section (charge state: 2, modification: HexNAc (ST)) of 409.35 ± 0.62 Å² and a collision cross section (charge state: 3, modification: HexNAc (ST)) of 481.8 ± 0.17 Å².

“GGSGGRGVSVSSAR [_GGSGGR(Methyl (R))GVSVSSAR_]” gave a collision cross section (charge state: 2, modification: Methyl (R)) of 384.84 ± 7.6 Å² and a collision cross section [4] of 464.84 ± 13 Å².

For SEGFDTYR [_SEGFDTY(Nitro (Y))R_], the collision cross section [3] was 336.07 ± 0.95 Å².

Sequence “VQFAPEKPGPQPSAETTR [_VQFAPEKPGP(Hydroxyproline)QPSAETTR_]” has a collision cross section [19] of 515.21 ± 1.2 Å².

Work on “GPPPSYGGSSR [_GPPPSY(Phospho (Y))GGSSR_]” yielded a collision cross section [9] of 343.35 ± 0.65 Å².

“FLQEFYQDDELGKK [_FLQEFYQDDELGK(Butyryl)K_]” showed a collision cross section [16] of 451.46 ± 0.51 Å² and a collision cross section (charge state: 3, modification: Butyryl) of 506.1 Å².

“SLGEPAAGEGSAKR [_SLGEPAAGEGSAK(Crotonyl)R_]” showed a collision cross section [20] of 387.18 ± 0.89 Å² and a collision cross section [21] of 487.34 ± 1.3 Å².

“GFPGAPGLPGLKGHR [_GFP(Hydroxyproline)GAPGLPGLKGHR_]” showed a collision cross section [19] of 478.5 ± 1.8 Å².

For INNFSADIKDSK [_INNFSADIK(Formyl)DSK_], the collision cross section [22] was 395.4 ± 0.83 Å².

With “ATVASSTQKFQDLGVK [_ATVASSTQK(Acetyl (K))FQDLGVK_]” the collision cross section [23] was 445.22 ± 2.2 Å² and the collision cross section [24] was 493.63 ± 0.33 Å².

In the case of GTPGKPGPR [_GTPGKP(Hydroxyproline)GPR_], the collision cross section [18] is reported as 308.55 Å².

With “GQKGEPGLPGHPGK [_GQKGEPGLP(Hydroxyproline)GHPGK_]” the collision cross section [18] was 379.44 ± 1.1 Å² and the collision cross section [19] was 420.23 ± 0.34 Å².

Work on “GSYLGGYSAGRGIYSR [_GSYLGGYSAGR(Methyl (R))GIYSR_]” yielded a collision cross section [4] of 481.98 Å².

Sequence “DSSPTTNSKLSALQR [_DSSPTTNSK(Malonyl)LSALQR_]” has a collision cross section (charge state: 2, modification: Malonyl) of 424.62 ± 0.65 Å² and a collision cross section (charge state: 3, modification: Malonyl) of 494.68 ± 0.88 Å².

“DSSPTTNSKLSALQR [_DSSPTTNSK(Gluratylation)LSALQR_]” showed a collision cross section [6] of 431.44 ± 1.5 Å² and a collision cross section [7] of 500.2 ± 1 Å².

TYVQDILR [_TY(Nitro (Y))VQDILR_] showed a collision cross section [3] of 350.96 ± 0.47 Å².

In the case of “SGKFTQQDIDEAK [_SGK(Dimethyl (K))FTQQDIDEAK_]”, the collision cross section [12] is reported as 408.63 Å² and the collision cross section [13] is reported as 466.84 ± 1.6 Å².

“VFIGNLNTLVVKK [_VFIGNLNTLVVK(hydroxyisobutyryl)K_]” gave a collision cross section [5] of 416.95 ± 0.83 Å² and a collision cross section (charge state: 3, modification: hydroxyisobutyryl) of 490.45 ± 2.8 Å².

Sequence “VGVEVPDVNIEGPEGKLK [_VGVEVPDVNIEGPEGK(Butyryl)LK_]” has a collision cross section [16] of 461.93 ± 0.5 Å².

“VSPASSVDSNIPSSQGYKK [_VSPASSVDSNIPSSQGYK(Crotonyl)K_]” gave a collision cross section [20] of 464.78 ± 0.82 Å² and a collision cross section [21] of 560.75 ± 1.6 Å².

“ANEKTESSSAQQVAVSR [_ANEK(Formyl)TESSSAQQVAVSR_]” gave a collision cross section [22] of 431.82 ± 1.4 Å² and a collision cross section (charge state: 3, modification: Formyl) of 523.66 ± 4.2 Å².

Sequence SLKLNTAEDAK [_SLK(Propionyl)LNTAEDAK_] has a collision cross section [8] of 376 ± 0.94 Å².

LVFDEYLK [_LVFDEY(Nitro (Y))LK_] showed a collision cross section [3] of 355.63 ± 0.17 Å².

Sequence “ALASIDSKLNQAK [_ALASIDSK(Crotonyl)LNQAK_]” has a collision cross section [20] of 401.19 ± 0.9 Å².

“ASEALLKQLK [_ASEALLK(hydroxyisobutyryl)QLK_]” showed a collision cross section [5] of 382.21 ± 0.28 Å².

“FGSRGGPGGGFR [_FGSR(Methyl (R))GGPGGGFR_]” gave a collision cross section [4] of 435.83 ± 3.2 Å².

In the case of LQIASDENYK [_LQIASDENY(Phospho (Y))K_], the collision cross section [9] is reported as 374.64 ± 0.77 Å².

Sequence “PGGEGPQCEKTTDVK [_PGGEGPQCEK(Formyl)TTDVK_]” has a collision cross section [22] of 413.32 Å².

With “TVTNAVVTVPAYFNDSQR [_TVTNAVVTVPAY(Nitro (Y))FNDSQR_]” the collision cross section [3] was 470.26 ± 1.5 Å² and the collision cross section [25] was 559.7 ± 0.32 Å².

In the case of “GAPGGRGAQLSVPSPAR [_GAPGGR(Citrullination (R))GAQLSVPSPAR_]”, the collision cross section [17] is reported as 412.31 ± 0.55 Å².

“DAIHFYNKSLAEHR [_DAIHFYNK(Acetyl (K))SLAEHR_]” showed a collision cross section [23] of 449.95 Å² and a collision cross section [24] of 504.71 ± 0.24 Å².

For “GTITVSAQELKDNR [_GTITVSAQELK(Methyl (K))DNR_]”, the collision cross section [15] was 439.73 ± 1.7 Å² and the collision cross section [14] was 485.75 ± 3.3 Å².

“PRLPATGTFK [_PR(Citrullination (R))LPATGTFK_]” showed a collision cross section [17] of 351.67 ± 5.4 Å².

In the case of “SITHSTVGSKGEK [_SITHSTVGSK(Dimethyl (K))GEK_]”, the collision cross section [12] is reported as 401.87 ± 2.2 Å² and the collision cross section [13] is reported as 464.51 ± 2.1 Å².

In the case of “SSFAYKDQNENR [_SSFAYK(GlyGly (K))DQNENR_]”, the collision cross section [26] is reported as 412.56 ± 1.4 Å² and the collision cross section [27] is reported as 465.62 ± 2 Å².

With “ITLSKHQNVQLPR [_ITLSK(Succinyl)HQNVQLPR_]” the collision cross section [10] was 418.56 ± 0.53 Å² and the collision cross section [11] was 485.89 ± 2 Å².

“VQGGALEDSQLVAGVAFKK [_VQGGALEDSQLVAGVAFK(Trimethyl (K))K_]” gave a collision cross section [1] of 515.46 ± 1.1 Å² and a collision cross section [2] of 564.46 ± 0.92 Å².

Work on “GNDISSGTVLSDYVGSGPPKK [_GNDISSGTVLSDY(Nitro (Y))VGSGPPKK_]” yielded a collision cross section [25] of 549.52 Å².

SGFGKFER [_SGFGK(Formyl)FER_] gave a collision cross section [22] of 326.95 ± 0.99 Å².

“SSGPGGQNVNKVNSK [_SSGPGGQNVNK(GlyGly (K))VNSK_]” gave a collision cross section [26] of 407.13 ± 1.4 Å² and a collision cross section [27] of 459.52 ± 3 Å².

For “FDDTNPEKEEAK [_FDDTNPEK(Dimethyl (K))EEAK_]”, the collision cross section [12] was 399.09 ± 0.55 Å² and the collision cross section [13] was 487.33 ± 2.2 Å².
